Assay results reported in patent publication US20210155676A1 (published 2021).

Biological target: gp120
Assay: ELISA; geometric mean over gp120 from 7 HIV strains

EC50 [nM] | Binder
1.57 | PGT121.42 (antibody, V domains shown) VH: QMQLQESGPGLVKPSETLSLTCSVSGASISDSYWSWIRRSPGKGLEWIGYVHKSGDTNYNPSLKSRVHLSLDTSKNQVSLSLSSVTAADSGKYYCARTLHGRRIYGIVAFNEWFTYFYMDVWGKGTQVTVSS VL: SDISVAPGETARISCGEKSLGSRAVQWYQHRAGQAPSLIIYNNQDRPSGIPERFSGSPDSPFGTTATLTITSVEAGDEADYYCHIWDSRVPTKWVFGGGTTLTVLG
2.14 | PGT121.65 (antibody, V domains shown) VH: QLQLQESGPGLVKPSETLSLTCSVSGASISDAYWSWIRRSPGKGLEWIGYVHKSGDTNYNPSLKSRVHLSLDTSKNQVSLSLTGVTAADSGKYYCARALHGRRIYGIVAFNEWFTYFYMDVWGTGTQVTVSS VL: SDISVAPGETARISCGEKSLGSRAVQWYQHRAGQAPSLIIYNNQDRPSGIPERFSGSPDSRPGTTATLTITSVEAGDEADYYCHIWDSRVPTKWVFGGGTKLTVLG
1.65 | PGT121.61 (antibody) heavy: QMQLQESGPGLVKPSETLSLTCSVSGASISDSYWSWIRRSPGKGLEWIGYVHKSGDTNYNPSLKSRVHLSLDTSKNQVSLSLTGVTAADSGKYYCARTLHGRRIYGIVAFNEWFTYFYMDVWGTGTQVTVSSASTKGPSVFPLAPSSKSTSGGTAALGCLVKDYFPEPVTVSWNSGALTSGVHTFPAVLQSSGLYSLSSVVTVPSSSLGTQTYICNVNHKPSNTKVDKKVEPKSCDKTHTCPPCPAPELLAGPDVFLFPPKPKDTLMISRTPEVTCVVVDVSHEDPEVKFNWYVDGVEVHNAKTKPREEQYNSTYRVVSVLTVLHQDWLNGKEYKCKVSNKALPLPEEKTISKAKGQPREPQVYTLPPSREEMTKNQVSLTCLVKGFYPSDIAVEWESNGQPENNYKTTPPVLDSDGSFFLYSKLTVDKSRWQQGNVFSCSVLHEALHSHYTQKSLSLSPGK light: SDISVAPGETARISCGEKSLGSRAVQWYQHRAGQAPSLIIYNNQDRPSGIPERFSGSPDSRPGTTATLTITSVEAGDEADYYCHIWDSRVPTKWVFGGGTKLTVLGQPKAAPSVTLFPPSSEELQANKATLVCLISDFYPGAVTVAWKADSSPVKAGVETTTPSKQSNNKYAASSYLSLTPEQWKSHRSYSCQVTHEGSTVEKTVAPTECS
1.79 | PGT121.60 (antibody) heavy: QMQLQESGPGLVKPSETLSLTCSVSGASISDSYWSWIRRSPGKGLEWIGYVHKSGDTNYNPSLKSRVHLSLDTSKNQVSLSLTGVTAADSGKYYCARTLHGRRIYGIVAFNEWFTYFYMDVWGTGTQVTVSSASTKGPSVFPLAPSSKSTSGGTAALGCLVKDYFPEPVTVSWNSGALTSGVHTFPAVLQSSGLYSLSSVVTVPSSSLGTQTYICNVNHKPSNTKVDKKVEPKSCDKTHTCPPCPAPELLAGPDVFLFPPKPKDTLMISRTPEVTCVVVDVSHEDPEVKFNWYVDGVEVHNAKTKPREEQYNSTYRVVSVLTVLHQDWLNGKEYKCKVSNKALPLPEEKTISKAKGQPREPQVYTLPPSREEMTKNQVSLTCLVKGFYPSDIAVEWESNGQPENNYKTTPPVLDSDGSFFLYSKLTVDKSRWQQGNVFSCSVLHEALHSHYTQKSLSLSPGK light: not shown
